US20250188166A1

Columns and labels:
[1] = biological target: Composition A (LZM-009 conjugated to IL-18 polypeptide SEQ ID NO: 30) (human) (UniProt Q14116)
[2] = biological target: Composition C (Trastuzumab/Herceptin conjugated to IL-18 polypeptide SEQ ID NO: 30) (human)
[3] = biological target: Composition D (LZM-009 conjugated to IL-18 polypeptide SEQ ID NO: 31) (human) (UniProt Q14116)
[4] = biological target: IL-18 polypeptide SEQ ID NO: 31 (C38A, C76A, C127A) (human) (UniProt Q14116)
[5] = biological target: native IL-18 wild-type (SEQ ID NO: 1) (human) (UniProt Q14116)
[6] = biological target: IL-18 polypeptide C143 (human) (UniProt Q14116); assay: cell-based or functional assay
[7] = biological target: IL-18 polypeptide C144 (human) (UniProt Q14116); assay: cell-based or functional assay
[8] = biological target: IL-18 polypeptide C145 (human) (UniProt Q14116); assay: cell-based or functional assay
[9] = biological target: IL-18 polypeptide C146 (SEQ ID NO: 68) (human) (UniProt Q14116); assay: cell-based or functional assay
[10] = biological target: IL-18 polypeptide C147 (human) (UniProt Q14116); assay: cell-based or functional assay
[11] = biological target: IL-18 polypeptide C148 (human) (UniProt Q14116); assay: cell-based or functional assay
[12] = biological target: IL-18 polypeptide C149 (human) (UniProt Q14116); assay: cell-based or functional assay
[13] = biological target: IL-18 polypeptide C150 (human) (UniProt Q14116); assay: cell-based or functional assay
[14] = biological target: IL-18 polypeptide C151 (human) (UniProt Q14116); assay: cell-based or functional assay
[15] = biological target: IL-18 polypeptide C152 (human) (UniProt Q14116); assay: cell-based or functional assay
[16] = biological target: IL-18 polypeptide C153 (human) (UniProt Q14116); assay: cell-based or functional assay
[17] = biological target: IL-18 polypeptide C154 (human) (UniProt Q14116); assay: cell-based or functional assay
[18] = biological target: IL-18 polypeptide C155 (human) (UniProt Q14116); assay: cell-based or functional assay
[19] = biological target: IL-18 polypeptide C156 (human) (UniProt Q14116); assay: cell-based or functional assay
[20] = biological target: IL-18 polypeptide C157 (human) (UniProt Q14116); assay: cell-based or functional assay
[21] = biological target: IL-18 polypeptide C158 (human) (UniProt Q14116); assay: cell-based or functional assay
[22] = biological target: IL-18 polypeptide C159 (human) (UniProt Q14116); assay: cell-based or functional assay
[23] = biological target: IL-18 polypeptide C160 (human) (UniProt Q14116); assay: cell-based or functional assay
[24] = biological target: IL-18 polypeptide C161 (human) (UniProt Q14116); assay: cell-based or functional assay
[25] = biological target: IL-18 polypeptide C162 (human) (UniProt Q14116); assay: cell-based or functional assay
[26] = biological target: IL-18 polypeptide C163 (human) (UniProt Q14116); assay: cell-based or functional assay
[27] = biological target: IL-18 polypeptide C164 (human) (UniProt Q14116); assay: cell-based or functional assay
[28] = biological target: IL-18 polypeptide C165 (human) (UniProt Q14116); assay: cell-based or functional assay
[29] = biological target: IL-18 polypeptide C166 (human) (UniProt Q14116); assay: cell-based or functional assay
[30] = biological target: IL-18 polypeptide C167 (human) (UniProt Q14116); assay: cell-based or functional assay
[31] = biological target: IL-18 polypeptide C168 (human) (UniProt Q14116); assay: cell-based or functional assay
[32] = biological target: IL-18 polypeptide SEQ ID NO: 34 (E06K, K53A, S55A) (human) (UniProt Q14116); assay: cell-based or functional assay
[33] = biological target: IL-18 polypeptide SEQ ID NO: 35 (Y01G, F02A, E06K, M51G, K53A, D54A, S55A, T63A) (human) (UniProt Q14116); assay: cell-based or functional assay
[34] = biological target: IL-18 polypeptide SEQ ID NO: 36 (K53A) (human) (UniProt Q14116); assay: cell-based or functional assay
[35] = biological target: IL-18 polypeptide SEQ ID NO: 37 (S55A) (human) (UniProt Q14116); assay: cell-based or functional assay
[36] = biological target: IL-18 polypeptide SEQ ID NO: 38 (E06K) (human) (UniProt Q14116); assay: cell-based or functional assay
[37] = biological target: IL-18 polypeptide SEQ ID NO: 39 (E06K, K53A) (human) (UniProt Q14116); assay: cell-based or functional assay
[38] = biological target: IL-18 polypeptide SEQ ID NO: 4 (E6K, C38A, K53A, C68A, M86C) (human) (UniProt Q14116); assay: cell-based or functional assay
[39] = biological target: IL-18 polypeptide SEQ ID NO: 40 (E06K, S55A) (human) (UniProt Q14116); assay: cell-based or functional assay
[40] = biological target: IL-18 polypeptide SEQ ID NO: 41 (K53A, S55A) (human) (UniProt Q14116); assay: cell-based or functional assay
[41] = biological target: IL-18 polypeptide SEQ ID NO: 42 (E06K, K53A, S55A, T63A) (human) (UniProt Q14116); assay: cell-based or functional assay
[42] = biological target: IL-18 polypeptide SEQ ID NO: 43 (E06K, K53A, S55A, Y01G) (human) (UniProt Q14116); assay: cell-based or functional assay
[43] = biological target: IL-18 polypeptide SEQ ID NO: 46 (E06K, K53A, S55A, M51G) (human) (UniProt Q14116); assay: cell-based or functional assay
[44] = biological target: IL-18 polypeptide SEQ ID NO: 47 (C38S, C68S, C76S, C127S) (human) (UniProt Q14116); assay: cell-based or functional assay
[45] = biological target: IL-18 polypeptide SEQ ID NO: 48 (C38S, C68S, C76S, C127S, K70C) (human) (UniProt Q14116); assay: cell-based or functional assay
[46] = biological target: IL-18 polypeptide SEQ ID NO: 5 (E6K, V11I, C38A, K53A, T63A, C68A, C76A, C127A, M86C) (human) (UniProt Q14116); assay: cell-based or functional assay
[47] = biological target: IL-18 polypeptide SEQ ID NO: 50 (E06K, K53A, T63A) (human) (UniProt Q14116); assay: cell-based or functional assay
[48] = biological target: IL-18 polypeptide SEQ ID NO: 51 (T63A) (human) (UniProt Q14116); assay: cell-based or functional assay
[49] = biological target: IL-18 polypeptide SEQ ID NO: 52 (E06K, T63A) (human) (UniProt Q14116); assay: cell-based or functional assay
[50] = biological target: IL-18 polypeptide SEQ ID NO: 53 (K53A, T63A) (human) (UniProt Q14116); assay: cell-based or functional assay
[51] = biological target: IL-18 polypeptide SEQ ID NO: 54 (E06K, K53A, C38S, C68S, C76S, C127S, K70C) (human) (UniProt Q14116); assay: cell-based or functional assay
[52] = biological target: IL-18 polypeptide SEQ ID NO: 55 (K53A, T63A, C38S, C68S, C76S, C127S, K70C) (human) (UniProt Q14116); assay: cell-based or functional assay
[53] = biological target: IL-18 polypeptide SEQ ID NO: 57 (E6K, C38S, K53A) (human) (UniProt Q14116); assay: cell-based or functional assay
[54] = biological target: IL-18 polypeptide SEQ ID NO: 59 (E6K, C38A, K53A) (human) (UniProt Q14116); assay: cell-based or functional assay
[55] = biological target: IL-18 polypeptide SEQ ID NO: 6 (E6K, V11I, C38A, K53A, T63A, C68A, C76A, C127A, D98C) (human) (UniProt Q14116); assay: cell-based or functional assay
[56] = biological target: IL-18 polypeptide SEQ ID NO: 60 (E6K, C38Q, K53A) (human) (UniProt Q14116); assay: cell-based or functional assay
[57] = biological target: IL-18 polypeptide SEQ ID NO: 62 (E6K, C38A, K53A, C127A) (human) (UniProt Q14116); assay: cell-based or functional assay
[58] = biological target: IL-18 polypeptide SEQ ID NO: 9 (E6K, C38A, K53A, C68A, D98C) (human) (UniProt Q14116); assay: cell-based or functional assay
[59] = biological target: native IL-18 wild-type (SEQ ID NO: 1) (human) (UniProt Q14116); assay: cell-based or functional assay

Question: What does the source list for “Fc fused human IL-18 binding protein isoform a (from UniProt O95998 31-194) (Fc fusion)”?
Answer: IC50 (read off the curve) [1]: 8 nM; IC50 (read off the curve) [2]: 10 nM; IC50 (read off the curve) [3]: 0.1 nM; IC50 (read off the curve) [4]: 0.3 nM; IC50 (read off the curve) [5]: 1 nM; IC50 of IL-18BP on IFNγ secretion by NK92 cells [6]: 1.62 nM; IC50 of IL-18BP on IFNγ secretion by NK92 cells [7]: 7.52 nM; IC50 of IL-18BP on IFNγ secretion by NK92 cells [8]: 10.2 nM; IC50 of IL-18BP on IFNγ secretion by NK92 cells [9]: 733 nM; IC50 of IL-18BP on IFNγ secretion by NK92 cells [10]: 47.6 nM; IC50 of IL-18BP on IFNγ secretion by NK92 cells [11]: 5.05 nM; IC50 of IL-18BP on IFNγ secretion by NK92 cells [12]: 1.17 nM; IC50 of IL-18BP on IFNγ secretion by NK92 cells [13]: 21.3 nM; IC50 of IL-18BP on IFNγ secretion by NK92 cells [14]: 3.62 nM; IC50 of IL-18BP on IFNγ secretion by NK92 cells [15]: 7.85 nM; IC50 of IL-18BP on IFNγ secretion by NK92 cells [16]: 2.22 nM; IC50 of IL-18BP on IFNγ secretion by NK92 cells [17]: 3.71 nM; IC50 of IL-18BP on IFNγ secretion by NK92 cells [18]: 3.23 nM; IC50 of IL-18BP on IFNγ secretion by NK92 cells [19]: 0.681 nM; IC50 of IL-18BP on IFNγ secretion by NK92 cells [20]: 6.08 nM; IC50 of IL-18BP on IFNγ secretion by NK92 cells [21]: 3.98 nM; IC50 of IL-18BP on IFNγ secretion by NK92 cells [22]: 1.81 nM; IC50 of IL-18BP on IFNγ secretion by NK92 cells [23]: 3.18 nM; IC50 of IL-18BP on IFNγ secretion by NK92 cells [24]: 1.07 nM; IC50 of IL-18BP on IFNγ secretion by NK92 cells [25]: 7.29 nM; IC50 of IL-18BP on IFNγ secretion by NK92 cells [26]: 0.823 nM; IC50 of IL-18BP on IFNγ secretion by NK92 cells [27]: 0.456 nM; IC50 of IL-18BP on IFNγ secretion by NK92 cells [28]: 0.885 nM; IC50 of IL-18BP on IFNγ secretion by NK92 cells [29]: 0.44 nM; IC50 of IL-18BP on IFNγ secretion by NK92 cells [30]: 0.809 nM; IC50 of IL-18BP on IFNγ secretion by NK92 cells [31]: 0.176 nM; IC50 of IL-18BP on IFNγ secretion by NK92 cells [32]: 229 nM; IC50 of IL-18BP on IFNγ secretion by NK92 cells [33]: > 55 nM; IC50 of IL-18BP on IFNγ secretion by NK92 cells [34]: 27.3 nM; IC50 of IL-18BP on IFNγ secretion by NK92 cells [35]: 4.46 nM; IC50 of IL-18BP on IFNγ secretion by NK92 cells [36]: 7.79 nM; IC50 of IL-18BP on IFNγ secretion by NK92 cells [37]: > 703 nM; IC50 of IL-18BP on IFNγ secretion by NK92 cells [38]: 396 nM; IC50 of IL-18BP on IFNγ secretion by NK92 cells [39]: 15 nM; IC50 of IL-18BP on IFNγ secretion by NK92 cells [40]: 37.3 nM; IC50 of IL-18BP on IFNγ secretion by NK92 cells [41]: 1060 nM; IC50 of IL-18BP on IFNγ secretion by NK92 cells [42]: 27.8 nM; IC50 of IL-18BP on IFNγ secretion by NK92 cells [43]: 0.189 nM; IC50 of IL-18BP on IFNγ secretion by NK92 cells [44]: 0.444 nM; IC50 of IL-18BP on IFNγ secretion by NK92 cells [45]: 0.114 nM; IC50 of IL-18BP on IFNγ secretion by NK92 cells [46]: 62.4 nM; IC50 of IL-18BP on IFNγ secretion by NK92 cells [47]: > 1000 nM; IC50 of IL-18BP on IFNγ secretion by NK92 cells [48]: 0.239 nM; IC50 of IL-18BP on IFNγ secretion by NK92 cells [49]: 47.1 nM; IC50 of IL-18BP on IFNγ secretion by NK92 cells [50]: 18.2 nM; IC50 of IL-18BP on IFNγ secretion by NK92 cells [51]: 23.5 nM; IC50 of IL-18BP on IFNγ secretion by NK92 cells [52]: > 1000 nM; IC50 of IL-18BP on IFNγ secretion by NK92 cells [53]: 146 nM; IC50 of IL-18BP on IFNγ secretion by NK92 cells [54]: 654 nM; IC50 of IL-18BP on IFNγ secretion by NK92 cells [55]: 5.85 nM; IC50 of IL-18BP on IFNγ secretion by NK92 cells [56]: 780 nM; IC50 of IL-18BP on IFNγ secretion by NK92 cells [57]: 284 nM; IC50 of IL-18BP on IFNγ secretion by NK92 cells [58]: 961 nM; IC50 of IL-18BP on IFNγ secretion by NK92 cells [59]: 1.47 nM
